Molecular target: fluorescein-labeled HMGB1 (full-length) (rat) (UniProt P63159)
Experiment: fluorescence polarisation

Chain of UniProt P63159 (P63159 whole entry): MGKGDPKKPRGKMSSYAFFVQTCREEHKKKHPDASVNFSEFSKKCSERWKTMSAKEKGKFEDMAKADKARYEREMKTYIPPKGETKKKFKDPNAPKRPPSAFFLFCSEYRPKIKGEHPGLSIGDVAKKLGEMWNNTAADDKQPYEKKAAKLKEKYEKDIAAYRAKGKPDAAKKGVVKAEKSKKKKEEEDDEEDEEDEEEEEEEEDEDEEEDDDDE

Kd: 2900 nM
Substance: Danio rerio TLR5-N14VLR (drTLR5) (receptor)
